The text below walks through data of PMC5620058, “IL-12p35 induces expansion of IL-10 and IL-35-expressing regulatory B cells and ameliorates autoimmune disease” (Nature Communications, 2017).

This data set concerns the molecule itself. Nature of the data set: AUC; sedimentation equilibrium, native conditions, non-reducing; peak fraction of Superose-6 further purified by Centricon filtration.

B1: mouse recombinant IL-12p35 (rIL-12p35; HBM-p35-Flag-His) (natural protein, UniProt P43431 23-215, looked up)
chain: RVIPVSGPARCLSQSRNLLKTTDDMVKTAREKLKHYSCTAEDIDHEDITRDQTSTLKTCLPLELHKNESCLATRETSSTTRGSCLPPQKTSLMMTLCLGSIYEDLKMYQTEFQAINAALQNHNHQQIILDKGMLVAIDELMQSLNHNGETLRQKPPVGEADPYRVKMKLCILLHAFSTRVVTINRVMGYLSSA
notes: IL-12p35 (Il12a), mouse; cDNA amplified with the printed primers and cloned behind the honeybee melittin (HBM) secretion signal of pMIB; The same construct was obtained as a monomer (~27 kDa, FPLC fractions 29-30) and as a p35−p35 homodimer (~56-57 kDa, fractions 20-21); also called p35−p35; source: purified (Ni-NTA, Centricon filtration, Sephacryl S-200 and Superose-6 FPLC)
A word on the stoichiometry N: it is a count of units in the complex or per binding partner. Consider B1, for which the “stoichiometry N” value came out at 2.
